In patent EP2877200B1:

Experiments:
[1] = target: human Type 1 IGF receptor (human) (UniProt P08069); experiment: competitive displacement of 125I-Tyr31 IGF-I from IGF-1R (different receptor preparation from Tables 1A-1C)
[2] = target: human Type 1 IGF receptor (human) (UniProt P08069); experiment: competitive displacement of 125I-Tyr31 IGF-I from IGF-1R

“[Lys^B28, Pro^B29]-insulin (ligand; other documents disagree on this pair)” showed a Kd [1] of 3.86 nM and a Kd [2] of 8.39 nM.

Substance “α-D-mannopyranoside-O^β-Thr^B30-[His^A4, His^A8, Gly^A21]-insulin (ligand)” has a Kd [2] of 41.8 nM.
